Assay results from the domain aggregation screens of Martell et al. (2025).

Test: soluble fraction after stress (log2 fold change); higher = more stays soluble; pooled small domains, quantitative proteomics
Settings: stress: pH 4
In short: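 Custom libraries of small protein domains were pooled and exposed to pH 4. High-throughput quantitative proteomics then measured the log2 fold change in the amount of each domain still soluble, with higher values meaning more stayed soluble. This soluble-fraction fold change stands for aggregation propensity.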

Row | Sequence | soluble fraction (log2)
1 | HMTVKEVGYDTFLTMLDKKEIKQVQVEDNQIIFSDNADPVNYYKTGVFNDPDLVNRLQDAGVEFG | -0.37
2 | HMTVKEYNRAVDEYSDAVWRFIRGNLRDEDRANDIVQDSFEKLWMHVTEIDYSVAKSWLFSTAYNNMIDI | -0.899
3 | HMTVKKLTINEDNSGRRIDNYLLSIFNSLPRSKIYNIIRKGEVRVNSSRIKPNYRLEQGDLVRIPPNLEFT | 0.0853
4 | HMTVKRNLVQEILRLKFRHPENFMPNRAFYQEVGINQMRWWDIFYGRKNINQEEYIALSKYF | -0.352
5 | HMTVLPTEQDAKALVGLGEEEAAKIVEGNGWTYRIGSRDGEQFMLTEDFVTSRLTLGIEKAIVMTATI | -2.11
6 | HMTVLSKEEFVAIEQRLLQLLGTAPVDNKILLQQLSGIKKEKAWKVLSFLQAENKIGMDATGRVYL | -0.697
7 | HMTVPDVKGMGARDAVFLLETLGFKVRINGIGQVYEQSIDPGKSYSKGEFISLRL | -0.81
8 | HMTVPNVVGQRILAAQDILKNLGLKVLVDTNLPNSQWGLRNVKSTNPGAGAVVRVGDTVTLIAR | 0.124
9 | HMTVPTEVALELMHATALEDNEQRILYIASFKEKHREHLHATIEVDGQEVTLARYADLVATGAYL | -2.15
10 | HMTVSADIIQKIIKTSTTDENIITIDSISNSISKLALSKITAEDIIEILEASSLVLRNSNGSWTVL | -0.716
11 | HMTVSKLKVINYTIRNGDSLWTISRKFNVTVDKVKEWNGLSDRTLLQPGQKLTLYVDPTIQISH | -0.406
12 | HMTVSLLQTRQRLQALADLGHYKGDLGAAWGPDAIEALKKAQATLGVTVDGKWGPQTEDAIQVALKVQ | -0.0459
13 | HMTVTISPGYEGRLLRSYLKNTLSLSTSALARLKTREDGITVNGVRVTVRYVLHAGDLLQLAVD | 0.22
14 | HMTVVHRQVHLQPDQGAFRAALYSHKAVLSEQTDDQGAINLEIRLPESDFLRLLNSSGLKLQDLVP | -0.512
15 | HMTVVSVDDQASASSEAIRTKVAGDSAARMSVDAGGKITWGAGSASGDVTLYRSAANTLKTDDTLVAT | 0.109
16 | HMTYADTRDLLIRRGMELLTEQGIAATSIERVLQSTGIPKGSFYHYFATKHDFTLAVMDAYHHY | -0.324
17 | HMTYAQQIGARIAFLRRLKGLTLAELAERVNKHKSTISKYESGQIIIDIESLKEVADALGVDVAQIVE | 0.187
18 | HMTYFDIAPELLTVYKEINDIPRDINQIVRKTGLSINEVSYKTMILQLEDKIVELPGQRFIRNS | -0.815
19 | HMTYKHLTIDEMKRFLSTREDSQSALVQFARVENVVGNRKGKYAVIKKWFLKNYKEEYNAFLS | 0.0391
20 | HMTYPGSIALVNPKHEAFVQHYVATSGSRGQAAKLAGVTTTTARNLLQDVEATARIRYLNAQQFQ | 0.22
21 | HMTYTGTVTGVDEGGLRVRSSTSTENTSNVITKVYTGDTFDVLDTVYNGSAKWYKIGFTYNGTYTYGYVSA | -0.518
22 | HMTYVSVSNYIGTNVDKAKGELESQGLVVLLEEQKTEDKSQDGMVLKQTIEGGTKVSSGSRITLIYGRYT | -0.117
23 | HMVADEGELLAIAREVVAANPKVFEDWKAGKQSAAQWFVGQIMKRTRGRANPQLALKLVTQALEEHAR | -0.21
24 | HMVAEKSKIEMAIDSINKLAKELADSGVAKKTISDIIKSVSGSANYNKITDFEVATDVYKELVALKNKEDT | -0.224
25 | HMVAESGLPPAFRSTWRHIMQTRGAQLDVLAMRTGTDAASLQKQLHAMELGGWVRRMPGGWYVPLK | -0.1
26 | HMVAFYATPKERGIYDDAETYREGDIVSIADGSRWIYVNPTATAGNDPADGSVYWERMSGAATGP | -0.127
27 | HMVAGHLQEKKGYFYMVLTYRDHEGKRKSKWLPTGLTIKGNKKRAQDLLQDARKNFVPDIPT | ≥ 0.43
28 | HMVAGHLQEKNGYFYIVLNYTNHEGKRKSKWITTGLTVKGNKKRAQDLLQEARKTFVPDIPT | 0.22

Row | Sequence | soluble fraction (log2)
29 | HMVAPKDIVMPSFVGKKYTDVVNTPNSSYTFEFKKDEKNSSDYAVGFIMDQKPKAGETVKSNATVTLIVSK | 0.0982
30 | HMVAPNSEATTKLIIEKTKYANESPAILMGFKATATMLMAKHVVLPTSKYAYFNEGRALLEKAIK | 0.278
31 | HMVAREAYTTQNLTDVFSISRQAVEKRAKREGWQSVPRKGRGGGKLWVVSSMPAETRDLLASLLLRK | ≥ 0.43
32 | HMVDALYGQGARVMRDFSEGSGIVKLDNGETWTGRLSPAASGASLYVGDRVIVTRIDGAIAEVTPP | -0.446
33 | HMVDDNFGLGEVTDQNYLTVLGRALDLIGWTDEQADSYSLKTFGVPHWDELGRSQAEKLVAHLIGLLKEQM | -0.157
34 | HMVDIEQAEFLSRQFDLLLARLDDPTIEWQDIADIRSEYTGENEHRDTIRKGSKLFYEYLQAGWIKN | -0.809
35 | HMVDISLSDRELEVLRLLAMGLSNADISRRLYLSEGTIRNYMSGIFSKLNVSDRTQAVVIALREGLVNL | -0.976
36 | HMVDPAEASKRAREYLDALPADDLKDVIRQFSATLAEGSVVLGYFQRSGLKSKVVKTALEQFVASTILSK | -0.268
37 | HMVDPAFLAWQQKPENTWFGTDRRKTALAIAIAEEIRNDPANSNLVGAAFYARVAEETEETLN | -1.23
38 | HMVDPWLEQVHRASAAYATAHGSARIPTTHPDLGWKVVRVRQRHRKGLLSDEWVAKFEALPGWTWEPK | -0.471
39 | HMVDQAFQTQLKNIQARTGKNLDELYAFIRASGLVKHGEIRDLAKRELSLGHGDANTLAKFYLESLAAAA | -0.103
40 | HMVDQKLIQASAEHSGIRIDRFLSEQLPEHSRSYIQKLIKDGQVSIGGKAVKSNYKIAGTEEISLLIPDQ | -0.224
41 | HMVDTSDLPAIVEKVFADNPEQVNDILNGKDRVKGFLVGQIMKATRGQAPPDEVNKLIDATLEKMKAA | 0.188
42 | HMVDYIGRRGVMLSTVSEEKMGNAEVVIDGNSYNIYVKSLDGSTIAYHQEILIINKSKDNNYFLVQIY | -0.548
43 | HMVEAIDQALIEKQIQAVLQENSAAVKKYQAGKTEVLAFLIGQSMRKIAKKVDANLVKNILLEQLKNK | 0.077
44 | HMVEDFSEVLLQYIREQGGAIALNDKTDAGVIYDTFGVSKKTFKKAVGDLYKKRLIVLGDEGIRLA | -0.939
45 | HMVEIGENIKKLRKAKRMTQKEVANQLNVTPQTISKWERNISYPDLDMLVKLSQLFHISTDALL | ≥ 0.43
46 | HMVELNDNEKIVYDILKETEKIHIDELTAKVQLTQSILSGALVQMEMKGMIVSLPGKMYKLL | -1.53
47 | HMVELRDGSLPLARGSVGDLVAEVQRKLGVAADGIFGPQTERAVRAFQARAGLASDGIVGPLTWSALFGA | 0.117
48 | HMVELVKVPALQGETVDEAIADIKDAGLEPGQVRYVESDLPKDTVTYQSVDAGEQVKAGTVINLQASKGP | 0.137
49 | HMVEMSNMELVREQYFQNLIYNVGDWVKDSKTEITGEVVKRGTNYLTIVQEDFTLHKVWLEDAESME | -1.46
50 | HMVEPDELTEREREVLQFVARGLSNKEIGAALALSPHTIKAHLRSILDKLHLRSRAEAAAWAVRSGLS | -0.162
51 | HMVEPLIVRNFSINYADIDKLETKIKDYISNSDKSGVNRGRVTSDTRTNMLIVTETASKLAQVEQLLKALD | -0.591
52 | HMVEPTDFTYLKAEVETAKALKQADYTVATWKSFAGELAEAEEVIAKTDASQAEVNEALSHLQAAEKELV | 0.215
53 | HMVETDQESSLIQAIYKYFEITGDNTFFDEKVGEKTVADRMEWAMDYLIQNRFSEEYGLIWGA | -0.517
54 | HMVFADRLRALRKKSGLTQDEFSKQTGIGRSAVGMYESGKREPNYTTLSKVARFYHVSTDYLLGRTDTP | -0.13
55 | HMVFQTAAEKAYEIISKKIMKGEYEPGMRLVRRQLAQELGVSPIPILEAMKRLEQDGLIEYKAHWGSIVTI | -0.56
